Experimental data: patent WO2022034912A1 (dated 2022)
Substitutions are numbered along the chain they refer to. Values belong to the binder of their own block, whether it stands above or below them.

Key:
[1] = molecular target: T1, hTRPV2 extracellular domain-biotin (572-609) (human, biotin added with the lysine residue at the C-terminus); assay: SPR (Biacore T200), antibody captured on anti-mouse IgG(Fc), peptide 10-1000 nM as analyte, 1:1 model
T1 construct: Synthetic polypeptide, analyte in the SPR measurement; also called hTRPV2 extracellular domain (572-609)
T1 peptide: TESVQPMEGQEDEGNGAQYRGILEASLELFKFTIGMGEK

[2] = molecular target: T2, human TRPV2 (transient receptor potential cation channel, subfamily V, member 2) (human, UniProt Q9Y5S1 1-764); assay: cell-based or functional assay
T2 sequence: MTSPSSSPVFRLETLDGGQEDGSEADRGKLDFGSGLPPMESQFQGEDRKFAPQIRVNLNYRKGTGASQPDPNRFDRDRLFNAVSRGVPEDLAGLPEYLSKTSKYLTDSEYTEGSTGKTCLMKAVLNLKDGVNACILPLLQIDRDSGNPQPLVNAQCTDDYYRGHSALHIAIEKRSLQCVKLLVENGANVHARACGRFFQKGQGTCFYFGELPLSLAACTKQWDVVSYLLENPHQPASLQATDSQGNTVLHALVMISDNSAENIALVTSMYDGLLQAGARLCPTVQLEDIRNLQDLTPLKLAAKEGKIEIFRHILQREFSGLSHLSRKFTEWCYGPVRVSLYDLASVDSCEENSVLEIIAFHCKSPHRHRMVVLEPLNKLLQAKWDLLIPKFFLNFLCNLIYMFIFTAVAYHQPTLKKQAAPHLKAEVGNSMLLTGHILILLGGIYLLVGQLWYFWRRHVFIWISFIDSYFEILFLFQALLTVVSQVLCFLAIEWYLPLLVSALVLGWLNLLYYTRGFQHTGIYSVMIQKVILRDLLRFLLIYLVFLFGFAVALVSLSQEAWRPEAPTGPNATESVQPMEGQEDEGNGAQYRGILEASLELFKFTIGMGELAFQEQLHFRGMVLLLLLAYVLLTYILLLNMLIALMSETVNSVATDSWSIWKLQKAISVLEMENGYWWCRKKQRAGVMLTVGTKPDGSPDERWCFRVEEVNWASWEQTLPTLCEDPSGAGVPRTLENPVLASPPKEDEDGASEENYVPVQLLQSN

[3] = molecular target: T3, mouse TRPV2 (mouse, UniProt Q9WTR1 1-756); assay: Western blot of solubilised mTRPV2-expressing HEK293 cells
T3 construct: whole, on cells; In the Western blot solubilised from the cells; also called mTRPV2; mTRPV2-expressing HEK293 cells
T3 sequence (looked up): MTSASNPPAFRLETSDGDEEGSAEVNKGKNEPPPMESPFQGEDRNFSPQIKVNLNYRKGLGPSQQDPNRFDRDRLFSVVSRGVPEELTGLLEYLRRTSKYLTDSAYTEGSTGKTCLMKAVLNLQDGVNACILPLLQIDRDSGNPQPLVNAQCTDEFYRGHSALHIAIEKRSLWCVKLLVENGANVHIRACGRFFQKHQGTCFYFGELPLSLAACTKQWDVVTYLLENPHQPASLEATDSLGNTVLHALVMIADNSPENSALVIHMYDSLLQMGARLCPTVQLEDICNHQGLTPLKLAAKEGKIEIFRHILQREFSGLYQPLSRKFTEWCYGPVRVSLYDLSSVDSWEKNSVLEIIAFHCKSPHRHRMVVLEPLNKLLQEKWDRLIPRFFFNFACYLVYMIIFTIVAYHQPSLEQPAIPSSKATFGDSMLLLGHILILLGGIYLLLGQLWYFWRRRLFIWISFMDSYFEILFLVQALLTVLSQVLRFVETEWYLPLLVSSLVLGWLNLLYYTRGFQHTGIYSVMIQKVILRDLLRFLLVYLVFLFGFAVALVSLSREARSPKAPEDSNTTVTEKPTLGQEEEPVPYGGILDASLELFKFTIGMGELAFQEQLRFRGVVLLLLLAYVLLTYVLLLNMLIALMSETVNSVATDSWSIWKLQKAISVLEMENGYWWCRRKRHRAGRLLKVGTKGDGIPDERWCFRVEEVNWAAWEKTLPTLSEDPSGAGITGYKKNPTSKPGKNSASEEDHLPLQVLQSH

[4] = molecular target: T4, biotinylated hTRPV2 (hTRPV2 full-length expression vector with Myc-Biotinylation-His tag, expressed in HEK293 … (human, UniProt Q9Y5S1 1-764, biotinylated on the tag (Myc-Biotin-His tag))); assay: flow cytometry on hTRPV2-expressing 293 cells, purified IgG
T4 construct: also called biotinylated hTRPV2-expressing HEK293 cells; not shown: Myc-Biotinylation-His tag
T4 sequence: T2 sequence

B1: anti-human TRPV2 IgG antibody mAb001 (01a033) (antibody, V domains shown)
VH: QVQLKESGPDLVQPSQTLSLTCTVSGFSLTTYGVHWVRQPPGKGLEWVGTMGWDGKKYYNSALKSRLSISRDTSKNQVFLKLSSLQTEDTAMYYCTRDGGYTWFAYWGQGTLVTVSA
VL: NIVMTQSPSSLAVSAGEKVTMSCKSSQSLLNSRTRKNYLAWYQQKPGQSPKLLIYWASTRESGVPDRFTGSGSGTDFTLTISSVQAEDLAVYYCKQSYNLFTFGGGTKLEIK
notes: Mouse IgG: VH joined to mouse CH1,2,3 and VL to CK, made in CHO-K1 cells, purified on Protein A; also called anti-hTRPV2 antibody (mAb001)
- Kd [1]: 188 nM

B2: anti-human TRPV2 IgG antibody mAb002 (02a001) (antibody, V domains shown)
VH: QVQLKQSGPVLVAPSQSLSITCTVSGFSLTSFGIHWVRQPPGKGLEWLGVIWSGGITHYNSALMSRLSISKDNSKSQVFLKMNSLQTDDTAMYYCAKLYSHPHAMDYWGQGTSVTVSS
VL: DIVMTQAAPSVPVTPGESVSISCRSSKSLLHSNGITYLYWFLQRPGQSPQLLIYRMSNLASGVPDRFSASGSGTAFTLRISRVEAEDVGVYYCMQHLEYPLTFGAGTKLELK
notes: Mouse IgG: VH joined to mouse CH1,2,3 and VL to CK, made in CHO-K1 cells, purified on Protein A; also called anti-hTRPV2 antibody (mAb002)
- IC50 of the inhibition of Ca 2+ influx into hTRPV2-expressing HEK293 cells (Cal520 fluorescence, cannabidiol and probenecid stimulation) [2]: 8.9 nM
- binding result [3]: no binding (tested: 500-fold dilution)
- Kd [1]: 19.2 nM

B3: humanized mAb002 antibody (VH14+VL1) (antibody, V domains shown)
VH: QVQLQESGPGLVKPSQSLSLTCTVSGFSLTSFGIHWIRQPPGKGLEWIGVIWSGGITHYNSALMSRVSISKDTSKNQVFLKLSSVTAADTAMYYCAKLYSHPHAMDYWGQGTLVTVSS
VL: DIVMTQSPLSLPVTPGEPASISCRSSKSLLHSNGITYLYWYLQKPGQSPQLLIYRMSNLASGVPDRFSGSGSGTDFTLKISRVEAEDVGVYYCMQHLEYPLTFGGGTKLEIK
notes: Full-length human IgG made in Expi293F cells
- binding result [4]: binds

B4: humanized mAb002 antibody (VH12+VL1) (antibody, V domains shown)
VH: B3 VH with T73N, L82M, S83N
VL: B3 VL
notes: as for B3
- binding result [4]: binds

B5: humanized mAb002 antibody (VH16+VL1) (antibody, V domains shown)
VH: B3 VH with K13A, S17T
VL: B3 VL
notes: as for B3
- binding result [4]: binds

Continued, values first:

- binding result [4]: binds
B6: humanized mAb002 antibody (VH13+VL1) (antibody, V domains shown)
VH: B3 VH with Q5K, E6Q, K13A, L20I, V67L
VL: B3 VL
notes: as for B3

- binding result [4]: binds
B7: humanized mAb002 antibody (VH15+VL1) (antibody, V domains shown)
VH: B3 VH with F79S
VL: B3 VL
notes: as for B3
